Data published in PMC10344781.

T1: single-chain mouse Trp2/H2-K^b (scpMHC), biotinylated (mouse | not stated)
T1 chain 1: SVYDFFVWL
T1 chain 2: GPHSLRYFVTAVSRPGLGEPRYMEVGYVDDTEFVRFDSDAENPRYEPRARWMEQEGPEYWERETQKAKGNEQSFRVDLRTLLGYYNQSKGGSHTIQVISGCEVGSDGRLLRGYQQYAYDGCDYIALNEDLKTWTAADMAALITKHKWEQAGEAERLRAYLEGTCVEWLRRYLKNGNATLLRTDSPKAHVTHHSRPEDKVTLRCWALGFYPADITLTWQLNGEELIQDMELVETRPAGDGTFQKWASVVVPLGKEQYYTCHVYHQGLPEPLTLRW
T1 chain 3: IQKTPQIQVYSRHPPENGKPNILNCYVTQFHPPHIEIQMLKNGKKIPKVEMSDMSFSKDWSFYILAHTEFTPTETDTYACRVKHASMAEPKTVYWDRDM


Molecular target: T1, single-chain mouse Trp2/H2-K^b …
Test: SPR
Conditions: modification not given, biotin on the biotinylation tag (BirA)

| Kd [nM] | koff [s⁻¹] | Kd (scFv) [nM] | koff (scFv) [s⁻¹] | Binder |
| --- | --- | --- | --- | --- |
| 2.5 | 0.00143 |  |  | mIgG2a clone 13 (wild-type mIgG2a) (protein) chain 1: EVLLQQSGPELVKPGASVKIPCKASGYTFTDYYMDWVKQSHGKSLEWIGLINPNNGGTVYNQKFKGKATLTVDKSSSAAYMEVRSLTSEDTAVYYCARKPYTGHPAWFAYWGQGTLVTVSA chain 2: DIQVTQSSSSFSVSLGDRVTITCKASEDIYNRLAWYQQKPGNAPRLLISGATSLETGVPDRFSGSGSRKDYTLIITSLQTEDVATYYCQQYYAFPLTFGAGTKLELK |
|  |  | 8.6 | 0.00121 | purified scFv13 (Trp2/H2-K^b TCRm scFv clone 13) (protein) chain 1: EVLLQQSGPELVKPGASVKIPCKASGYTFTDYYMDWVKQSHGKSLEWIGLINPNNGGTVYNQKFKGKATLTVDKSSSAAYMEVRSLTSEDTAVYYCARKPYTGHPAWFAYWGQGTLVTVSA chain 2: DIQVTQSSSSFSVSLGDRVTITCKASEDIYNRLAWYQQKPGNAPRLLISGATSLETGVPDRFSGSGSRKDYTLIITSLQTEDVATYYCQQYYAFPLTFGAGTKLELK |
